Laboratory results taken from US8691944.

Tests used:
[1] = target: platelet-derived growth factor-BB (PDGF-BB) (UniProt P01127); assay: equilibrium binding
[2] = target: basic fibroblast growth factor (bFGF, FGF-2) (UniProt P09038); assay: binding assay, method not restated
[3] = target: platelet-derived growth factor-BB (PDGF-BB) (UniProt P01127); assay: binding assay, method not restated
[4] = target: transforming growth factor-β1 (TGF-β1) (UniProt P01137); assay: binding assay, method not restated
Chain of transforming growth factor-β1 (TGF-β1) (P01137 279-390 limits assumed): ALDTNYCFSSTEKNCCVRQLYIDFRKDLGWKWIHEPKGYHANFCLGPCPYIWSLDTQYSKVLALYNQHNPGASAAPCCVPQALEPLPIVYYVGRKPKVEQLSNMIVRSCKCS

[5] = target: vascular endothelial growth factor A (VEGF-A) (UniProt P15692); assay: binding assay, method not restated
Chain of vascular endothelial growth factor A (VEGF-A) (P15692 other isoform, or with tags, fused parts or gaps limits assumed): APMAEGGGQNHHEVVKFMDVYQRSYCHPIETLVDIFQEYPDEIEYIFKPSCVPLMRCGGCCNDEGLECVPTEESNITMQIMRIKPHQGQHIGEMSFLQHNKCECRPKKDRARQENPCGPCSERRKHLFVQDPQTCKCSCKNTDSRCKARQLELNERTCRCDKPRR

[6] = target: basic fibroblast growth factor (bFGF, FGF-2) (UniProt P09038); assay: equilibrium or kinetic binding, not said which
[7] = target: transforming growth factor-β1 (TGF-β1) (UniProt P01137); assay: equilibrium or kinetic binding, not said which

Chain of platelet-derived growth factor-BB (PDGF-BB) (P01127 82-190 limits assumed): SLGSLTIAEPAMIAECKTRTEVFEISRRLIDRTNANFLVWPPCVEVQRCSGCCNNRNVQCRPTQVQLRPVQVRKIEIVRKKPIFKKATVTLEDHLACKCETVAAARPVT
Chain of basic fibroblast growth factor (bFGF, FGF-2) (P09038 143-288 limits assumed): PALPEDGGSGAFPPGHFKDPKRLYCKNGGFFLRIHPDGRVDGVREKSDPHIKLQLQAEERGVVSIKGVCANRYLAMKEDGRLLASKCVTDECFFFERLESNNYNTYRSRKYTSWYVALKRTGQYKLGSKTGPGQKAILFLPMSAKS

- Kd [1]: 350 nM
- Kd [2]: 100 nM
- Kd [3]: 100 nM
- Kd [4]: 100 nM
- Kd [5]: 100 nM
- Kd [6]: 58 nM
- Kd [7]: 74 nM
Substance: IIICS, variably-spliced domain of fibronectin (from UniProt P02751 2083-2202)
